6 proteins from the PETadex activity labels (doi:10.1042/bj20051645) can be followed below.

The labels stand for the following.
B1: unnamed (protein)
chain: MMNFNNVFRWHLPFLFLVLLTFRAAAADTLLILGDSLSAGYRMSASAAWPALLNDKWQSKTSVVNASISGDTSQQGLARLPALLKQHQPRWVLVELGGNDGLRGFQPQQTEQTLRQILQDVKAANAEPLLMQIRLPANYGRRYNEAFSAIYPKLAKEFDVPLLPFFMEEVYLKPQWMQDAGIHPNRDAQPFIADWMAKQLQPLVNHDS
B2: unnamed (protein)
chain: B1 chain with N99A, A180D
B3: unnamed (protein)
chain: B1 chain with S36A, A180D
B4: unnamed (protein)
chain: B1 chain with G70A, A180D
B5: unnamed (protein)
chain: B1 chain with A180D, H183A
B6: unnamed (protein)
chain: B1 chain with A180D

Where a chain is given by its changes, count along the chain named.

Substrate in the data set: p-NP-C4
The note with it: pH 7; 37 °C.
Consider B1, for which the Km came out at 1880 µM, the kcat came out at 5.98 s⁻¹ and the kcat/Km was determined as 3180 M⁻¹ s⁻¹.

As to B2, the Km was found to be 1660 µM, the kcat was found to be 12 s⁻¹ and the kcat/Km came to 7220 M⁻¹ s⁻¹.

B3: the Km was found to be 1550 µM, the kcat is 0.16 s⁻¹ and the kcat/Km was 103 M⁻¹ s⁻¹.

As to B4, the Km was determined as 1100 µM, the kcat is 3.16 s⁻¹ and the kcat/Km is 2870 M⁻¹ s⁻¹.

With B5, the Km stood at 610 µM, the kcat was found to be 0.0093 s⁻¹ and the kcat/Km came out at 15.2 M⁻¹ s⁻¹.

Consider B6, for which the Km worked out at 870 µM, the kcat was 15.3 s⁻¹ and the kcat/Km worked out at 17600 M⁻¹ s⁻¹.
